{
  "source": "paper PMC3889140",
  "about": "(Bioorganic & medicinal chemistry letters, 2013)",
  "key": {"B16/F1 melanoma cells": {"test_system": "B16/F1 melanoma cells", "test": "Cellular internalization in B16/F1 melanoma cells", "type": "cell-based, murine"}, "in vivo": {"test": "in vivo", "set-up": "species or system C57 mice", "conditions": "C57, mouse, iv, total radioactivity; for tissue uptake dose at 2 h: percent injected dose"}, "[1]": {"test_system": "B16/F1 melanoma-bearing C57 mouse", "test": "SPECT/CT melanoma imaging", "type": "in vivo", "conditions": "flank B16/F1 melanoma, 2 h post-injection, about 7.4 MBq, one mouse"}, "[2]": {"conditions": "0.037 MBq, Kidneys (renal) uptake"}, "[3]": {"conditions": "0.037 MBq, Uptake ratio Tumor/Lung"}},
  "note": "“Also recorded” adds a separate entry of the source. Positions of bridges follow the written chain, without caps; N, C: chain ends. Non-standard residues stand in square brackets, D forms with d. Residues, ends and D or L forms follow the SMILES beside them.",
  "data": [
    {"molecule": "CC(C)[C@H](NC(=O)[C@@H]1CCCN1C(=O)[C@H](CCCNC(=N)N)NC(=O)[C@H](CS)NC(=O)[C@H](Cc1c[nH]c2ccccc12)NC(=O)[C@H](CCCNC(=N)N)NC(=O)[C@@H](Cc1ccccc1)NC(=O)[C@H](Cc1c[nH]cn1)NC(=O)[C@H](CCC(=O)O)NC(=O)[C@H](CS)NC(=O)[C@H](CS)NC(=O)[C@H](CCCNC(=N)N)NC(=O)[C@@H]1CC(=O)N[C@@H](CCCNC(=N)N)C(=O)N[C@@H](C)C(=O)N[C@@H](CC(=O)O)C(=O)N[C@H](Cc2ccc(O)cc2)C(=O)N1)C(N)=O", "note": "[^99mTc-RAD-Arg-(Arg^11)CCMSH, metal not drawn] (RAD[dY]DRCCEH[dF]RWCRPV-NH2; lactam N-5; C-terminus assumed)", "values": [
      {"measurement": "activity internalized", "setting": "B16/F1 melanoma cells; 20 min post incubation", "value": "Approximately 77.81 ± 4.46%"},
      {"measurement": "activity internalized", "setting": "B16/F1 melanoma cells; after 2 h incubation", "value": "81.26 ± 4.81", "unit": "%"},
      {"measurement": "tissue uptake at 0.5 h", "setting": "in vivo; 0.037 MBq, Blood uptake", "value": "3.43 ± 0.37", "unit": "%ID/g"},
      {"measurement": "tissue uptake at 2 h", "setting": "in vivo; 0.037 MBq, Blood uptake", "value": "0.59 ± 0.17", "unit": "%ID/g"},
      {"measurement": "tissue uptake at 4 h", "setting": "in vivo; 0.037 MBq, Blood uptake", "value": "0.1 ± 0.06", "unit": "%ID/g"},
      {"measurement": "tissue uptake at 24 h", "setting": "in vivo; 0.037 MBq, Blood uptake", "value": "0.04 ± 0.01", "unit": "%ID/g"},
      {"measurement": "tissue uptake at 0.5 h", "setting": "in vivo; 0.037 MBq, Bone uptake", "value": "1.97 ± 0.22", "unit": "%ID/g"},
      {"measurement": "tissue uptake at 2 h", "setting": "in vivo; 0.037 MBq, Bone uptake", "value": "0.64 ± 0.25", "unit": "%ID/g"},
      {"measurement": "tissue uptake at 4 h", "setting": "in vivo; 0.037 MBq, Bone uptake", "value": "0.34 ± 0.13", "unit": "%ID/g"},
      {"measurement": "tissue uptake at 24 h", "setting": "in vivo; 0.037 MBq, Bone uptake", "value": "0.14 ± 0.04", "unit": "%ID/g"},
      {"measurement": "tissue uptake at 0.5 h", "setting": "in vivo; 0.037 MBq, Brain uptake", "value": "0.16 ± 0.04", "unit": "%ID/g"},
      {"measurement": "tissue uptake at 2 h", "setting": "in vivo; 0.037 MBq, Brain uptake", "value": "0.04 ± 0.02", "unit": "%ID/g"},
      {"measurement": "tissue uptake at 4 h", "setting": "in vivo; 0.037 MBq, Brain uptake", "value": "0.02 ± 0.02", "unit": "%ID/g"},
      {"measurement": "tissue uptake at 24 h", "setting": "in vivo; 0.037 MBq, Brain uptake", "value": 0.02, "unit": "%ID/g"},
      {"measurement": "tissue uptake at 0.5 h", "setting": "in vivo; 0.037 MBq, Heart uptake", "value": "1.71 ± 0.58", "unit": "%ID/g"},
      {"measurement": "tissue uptake at 2 h", "setting": "in vivo; 0.037 MBq, Heart uptake", "value": "0.5 ± 0.14", "unit": "%ID/g"},
      {"measurement": "tissue uptake at 4 h", "setting": "in vivo; 0.037 MBq, Heart uptake", "value": "0.21 ± 0.03", "unit": "%ID/g"},
      {"measurement": "tissue uptake at 24 h", "setting": "in vivo; 0.037 MBq, Heart uptake", "value": "0.1 ± 0.02", "unit": "%ID/g"},
      {"measurement": "tissue uptake at 0.5 h", "setting": "in vivo; [2]", "value": "41.2 ± 4.48", "unit": "%ID/g"},
      {"measurement": "tissue uptake at 2 h", "setting": "in vivo; [2]", "value": "35.6 ± 9.61", "unit": "%ID/g"},
      {"measurement": "tissue uptake at 4 h", "setting": "in vivo; [2]", "value": "26.5 ± 0.62", "unit": "%ID/g"},
      {"measurement": "tissue uptake at 24 h", "setting": "in vivo; [2]", "value": "12 ± 2.29", "unit": "%ID/g"},
      {"measurement": "tissue uptake at 0.5 h", "setting": "in vivo; 0.037 MBq, Liver uptake", "value": "3.07 ± 0.08", "unit": "%ID/g"},
      {"measurement": "tissue uptake at 2 h", "setting": "in vivo; 0.037 MBq, Liver uptake", "value": "1.88 ± 0.35", "unit": "%ID/g"},
      {"measurement": "tissue uptake at 4 h", "setting": "in vivo; 0.037 MBq, Liver uptake", "value": "1.47 ± 0.11", "unit": "%ID/g"},
      {"measurement": "tissue uptake at 24 h", "setting": "in vivo; 0.037 MBq, Liver uptake", "value": "1.18 ± 0.28", "unit": "%ID/g"},
      {"measurement": "tissue uptake at 0.5 h", "setting": "in vivo; 0.037 MBq, Lung uptake", "value": "5.42 ± 0.7", "unit": "%ID/g"},
      {"measurement": "tissue uptake at 2 h", "setting": "in vivo; 0.037 MBq, Lung uptake", "value": "1.15 ± 0.22", "unit": "%ID/g"},
      {"measurement": "tissue uptake at 4 h", "setting": "in vivo; 0.037 MBq, Lung uptake", "value": "0.4 ± 0.16", "unit": "%ID/g"},
      {"measurement": "tissue uptake at 24 h", "setting": "in vivo; 0.037 MBq, Lung uptake", "value": "0.16 ± 0.03", "unit": "%ID/g"},
      {"measurement": "tissue uptake at 0.5 h", "setting": "in vivo; 0.037 MBq, Muscle uptake", "value": "0.8 ± 0.46", "unit": "%ID/g"},
      {"measurement": "tissue uptake at 2 h", "setting": "in vivo; 0.037 MBq, Muscle uptake", "value": "0.2 ± 0.15", "unit": "%ID/g"},
      {"measurement": "tissue uptake at 4 h", "setting": "in vivo; 0.037 MBq, Muscle uptake", "value": "0.15 ± 0.1", "unit": "%ID/g"},
      {"measurement": "tissue uptake at 24 h", "setting": "in vivo; 0.037 MBq, Muscle uptake", "value": "0.03 ± 0.02", "unit": "%ID/g"},
      {"measurement": "tissue uptake at 0.5 h", "setting": "in vivo; 0.037 MBq, Pancreas uptake", "value": "1.06 ± 0.33", "unit": "%ID/g"},
      {"measurement": "tissue uptake at 2 h", "setting": "in vivo; 0.037 MBq, Pancreas uptake", "value": "0.2 ± 0.11", "unit": "%ID/g"},
      {"measurement": "tissue uptake at 4 h", "setting": "in vivo; 0.037 MBq, Pancreas uptake", "value": "0.1 ± 0.05", "unit": "%ID/g"},
      {"measurement": "tissue uptake at 24 h", "setting": "in vivo; 0.037 MBq, Pancreas uptake", "value": "0.1 ± 0.05", "unit": "%ID/g"},
      {"measurement": "tissue uptake at 0.5 h", "setting": "in vivo; 0.037 MBq, Skin uptake", "value": "5.43 ± 0.41", "unit": "%ID/g"},
      {"measurement": "tissue uptake at 2 h", "setting": "in vivo; 0.037 MBq, Skin uptake", "value": "1.1 ± 0.39", "unit": "%ID/g"},
      {"measurement": "tissue uptake at 4 h", "setting": "in vivo; 0.037 MBq, Skin uptake", "value": "0.53 ± 0.09", "unit": "%ID/g"},
      {"measurement": "tissue uptake at 24 h", "setting": "in vivo; 0.037 MBq, Skin uptake", "value": "0.24 ± 0.1", "unit": "%ID/g"},
      {"measurement": "tissue uptake at 0.5 h", "setting": "in vivo; 0.037 MBq, Spleen uptake", "value": "2.12 ± 0.57", "unit": "%ID/g"},
      {"measurement": "tissue uptake at 2 h", "setting": "in vivo; 0.037 MBq, Spleen uptake", "value": "0.61 ± 0.31", "unit": "%ID/g"},
      {"measurement": "tissue uptake at 4 h", "setting": "in vivo; 0.037 MBq, Spleen uptake", "value": "0.25 ± 0.12", "unit": "%ID/g"},
      {"measurement": "tissue uptake at 24 h", "setting": "in vivo; 0.037 MBq, Spleen uptake", "value": "0.41 ± 0.14", "unit": "%ID/g"},
      {"measurement": "tissue uptake at 0.5 h", "setting": "in vivo; 0.037 MBq, Stomach uptake", "value": "3.13 ± 0.62", "unit": "%ID/g"},
      {"measurement": "tissue uptake at 2 h", "setting": "in vivo; 0.037 MBq, Stomach uptake", "value": "1.63 ± 0.43", "unit": "%ID/g"},
      {"measurement": "tissue uptake at 4 h", "setting": "in vivo; 0.037 MBq, Stomach uptake", "value": "1.41 ± 0.74", "unit": "%ID/g"},
      {"measurement": "tissue uptake at 24 h", "setting": "in vivo; 0.037 MBq, Stomach uptake", "value": "0.28 ± 0.09", "unit": "%ID/g"},
      {"measurement": "tissue uptake at 0.5 h", "setting": "in vivo; 0.037 MBq, Tumor uptake", "value": "8.46 ± 3.7", "unit": "%ID/g"},
      {"measurement": "tissue uptake at 2 h", "setting": "in vivo; 0.037 MBq, Tumor uptake", "value": "18 ± 4.96", "unit": "%ID/g"},
      {"measurement": "tissue uptake at 4 h", "setting": "in vivo; 0.037 MBq, Tumor uptake", "value": "14.1 ± 2.9", "unit": "%ID/g"},
      {"measurement": "tissue uptake at 24 h", "setting": "in vivo; 0.037 MBq, Tumor uptake", "value": "10.2 ± 2.66", "unit": "%ID/g"},
      {"measurement": "tissue to tissue ratio at 0.5 h", "setting": "in vivo; [3]", "value": 1.56},
      {"measurement": "tissue to tissue ratio at 2 h", "setting": "in vivo; [3]", "value": 15.6},
      {"measurement": "tissue to tissue ratio at 4 h", "setting": "in vivo; [3]", "value": 35.2},
      {"measurement": "tissue to tissue ratio at 24 h", "setting": "in vivo; [3]", "value": 63.5},
      {"measurement": "tissue uptake dose at 2 h", "setting": "in vivo; Bladder", "value": "77.8 ± 2.34", "unit": "%ID"},
      {"measurement": "tissue uptake dose at 2 h", "setting": "in vivo; Intestines", "value": "2.5 ± 0.16", "unit": "%ID"},
      {"measurement": "tissue to tissue ratio at 2 h", "setting": "in vivo; Uptake ratio Tumor/Blood", "value": 2.41},
      {"measurement": "tissue to tissue ratio at 2 h", "setting": "in vivo; Uptake ratio Tumor/Kidneys", "value": 0.09},
      {"measurement": "tissue to tissue ratio at 2 h", "setting": "in vivo; Uptake ratio Tumor/Liver", "value": 1.12},
      {"measurement": "tissue to tissue ratio at 2 h", "setting": "in vivo; Uptake ratio Tumor/Lung", "value": 1.73},
      {"measurement": "tissue to tissue ratio at 2 h", "setting": "in vivo; Uptake ratio Tumor/Muscle", "value": 10.4},
      {"measurement": "melanoma imaging by SPECT/CT", "setting": "[1]", "value": "visualized clearly; also recorded: clearly imaged"}
    ]}
  ]
}
